In patent US20210269771A1 (RAMOT AT TEL AVIV UNIVERSITY, published 2021):

Tests used:
[1] = molecular target: T1, gp120 antigen of the YU2.DG HIV strain, His-tagged (HIV-1 strain YU2.DG, UniProt P35961 32-498); assay: flow cytometry on engineered primary human and murine B cells
T1 construct: domain: gp120; also called gp120-YU2.DG; gp120-YU2

[2] = molecular target: T1, gp120 antigen of the YU2.DG HIV strain, …; assay: ELISA (FIG. 15A)
Procedure: Enzyme Linked Immunosorbent assay. […] Plates were washed with PBST and blocked for two hours with 5% BSA in PBST, washed again and detection antibodies, anti-mouse IgA(abcam) or anti-mouse IgG or anti-mouse IgG1 or anti-mouse IgM (Jackson ImmunoResearch) were provided for an additional incubation of two hours at 2 μg/ml in PBST. Before detection with QuantaBlu (ThermoFisher) according to manufacturer protocols, plates were washed for an additional round. Detection was done in a Synergy M1 Plate reader (Biotek). The concentration of antigen specific antibodies was determined by reference to the dilution factor of the standard curve.

B1: 3BNC117 expressed as a membranal B cell receptor (BCR) on engineered B cells (antibody, V domains shown)
VH: QVQLLQSGAAVTKPGASVRVSCEASGYNIRDYFIHWWRQAPGQGLQWVGWINPKTGQPNNPRQFQGRVSLTRHASWDFDTFSFYMDLKALRSDDTAVYFCARQRSDYWDFDVWGSGTQVTVSS
VL: DIQMTQSPSSLSASVGDTVTITCQANGYLNWYQQRRGKAPKLLIYDGSKLERGVPSRFSGRRWGQEYNLTINNLQPEDIATYFCQVYEFVVPGTRLDLK
notes: also called 3BNC117 BCR; ADN171
binding result [1]: binds

B2: 3BNC117 antibody, recombinant, expressed in Expi293F cells and purified (antibody, V domains shown)
VH: B1 VH
VL: B1 VL
notes: also called pADN210 (light chain) / pADN211 (heavy chain)
binding result [2]: binds
